Literature values in patent US20060234934A1, “Composition and Method for Selective Cytostasis” (priority 2005, published 2006).

Test system: human embryonic palatal mesenchymal cells

B1: EGF: Epidermal Growth Factor (protein, UniProt P01133 23-1207, looked up)
Pro-epidermal growth factor: PQHWSCPEGTLAGNGNSTCVGPAPFLIFSHGNSIFRIDTEGTNYEQLVVDAGVSVIMDFHYNEKRIYWVDLERQLLQRVFLNGSRQERVCNIEKNVSGMAINWINEEVIWSNQQEGIITVTDMKGNNSHILLSALKYPANVAVDPVERFIFWSSEVAGSLYRADLDGVGVKALLETSEKITAVSLDVLDKRLFWIQYNREGSNSLICSCDYDGGSVHISKHPTQHNLFAMSLFGDRIFYSTWKMKTIWIANKHTGKDMVRINLHSSFVPLGELKVVHPLAQPKAEDDTWEPEQKLCKLRKGNCSSTVCGQDLQSHLCMCAEGYALSRDRKYCEDVNECAFWNHGCTLGCKNTPGSYYCTCPVGFVLLPDGKRCHQLVSCPRNVSECSHDCVLTSEGPLCFCPEGSVLERDGKTCSGCSSPDNGGCSQLCVPLSPVSWECDCFPGYDLQLDEKSCAASGPQPFLLFANSQDIRHMHFDGTDYGTLLSQQMGMVYALDHDPVENKIYFAHTALKWIERANMDGSQRERLIEEGVDVPEGLAVDWIGRRFYWTDRGKSLIGRSDLNGKRSKIITKENISQPRGIAVHPMAKRLFWTDTGINPRIESSSLQGLGRLVIASSDLIWPSGITIDFLTDKLYWCDAKQSVIEMANLDGSKRRRLTQNDVGHPFAVAVFEDYVWFSDWAMPSVMRVNKRTGKDRVRLQGSMLKPSSLVVVHPLAKPGADPCLYQNGGCEHICKKRLGTAWCSCREGFMKASDGKTCLALDGHQLLAGGEVDLKNQVTPLDILSKTRVSEDNITESQHMLVAEIMVSDQDDCAPVGCSMYARCISEGEDATCQCLKGFAGDGKLCSDIDECEMGVPVCPPASSKCINTEGGYVCRCSEGYQGDGIHCLDIDECQLGEHSCGENASCTNTEGGYTCMCAGRLSEPGLICPDSTPPPHLREDDHHYSVRNSDSECPLSHDGYCLHDGVCMYIEALDKYACNCVVGYIGERCQYRDLKWWELRHAGHGQQQKVIVVAVCVVVLVMLLLLSLWGAHYYRTQKLLSKNPKNPYEESSRDVRSRRPADTEDGMSSCPQPWFVVIKEHQDLKNGGQPVAGEDGQAADGSMQPTSWRQEPQLCGMGTEQGCWIPVSSDKGSCPQVMERSFHMPSYGTQTLEGGVEKPHSLLSANPLWQQRALDPPHQMELTQ
modifications: Pro-epidermal growth factor
For B1, the “stimulation of incorporation of 3[H]-thymidine into newly synthesized DNA” value is given as “a little more than twofold”.
